Here are results for one molecule from US20090291899A1 (published 2009).

Where no end group is shown, it is not given here.

For the experiment, the target named is T1, recombinant human soluble TNF receptor inhibitor/Fc chimera (rHusTNFRI) (human, UniProt P19438 30-211).
T1 construct: Bought from Prospec-Tany TechnoGene; Only the soluble part stood in the assay; also called TNF-R1; immobilised rHusTNFRI; not shown: Fc part of human IgG1; 6x histidine tag on the Fc part
T1 sequence: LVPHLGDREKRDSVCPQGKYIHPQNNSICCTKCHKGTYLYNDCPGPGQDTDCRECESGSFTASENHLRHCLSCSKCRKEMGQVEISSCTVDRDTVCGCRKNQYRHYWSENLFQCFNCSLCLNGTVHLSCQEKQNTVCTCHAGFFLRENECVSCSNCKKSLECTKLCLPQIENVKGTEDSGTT
Nature of the experiment: solid-phase competition ELISA: unlabelled TNF70-80 against 10 µM biotinylated TNF70-80 on immobilised rHusTNFRI.

B1: TNF70-80 (Pro-Ser-Thr-His-Val-Leu-Ile-Thr-His-Thr-Ile-OH) (peptide)
peptide: PSTHVLITHTI-OH
notes: 4; also called Peptide A; TNF mimetic peptide
Consider B1, for which the IC50 was ~21 µM and the Kd was 90 µM.
